Series [1] concerns the molecule itself. Nature of the series: crystal structure.
Series [2] concerns the target T1, MEF2A (1-95) (UniProt Q02078 1-95).
T1 sequence: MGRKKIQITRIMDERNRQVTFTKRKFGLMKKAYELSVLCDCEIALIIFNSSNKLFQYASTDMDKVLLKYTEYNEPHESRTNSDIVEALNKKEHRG
The experiment in a line: SPR. Background: In SPR one partner is held on a chip, and binding of the other changes the refractive index at the surface.

Series [3] addresses T1, MEF2A (1-95). Nature of the series: fluorescence polarisation. For orientation: Polarisation of emitted light reports the rotation of a fluorescent probe.

5‑acetamidofluorescein = fluorescein label from 5-iodoacetamidofluorescein attached at Cys

B1: MEF2A (1-78) (domain or fragment)
chain: MGRKKIQITRIMDERNRQVTFTKRKFGLMKKAYELSVLCDCEIALIIFNSSNKLFQYASTDMDKVLLKYTEYNEPHES
As to B1, the binding result in series [1] is recorded as “binds”.

B2: HDAC4 (AA 155-220) (domain or fragment)
chain: LKNKEKGKESAVASTEVKMKLQEFVLNKKKALAHRNLNHCISSDPRYWYGKTQHSSLDQSSPPQSG
Turning to B2, the binding result in series [2] is “binds”.

B3: HDAC4 fragment (AA 155-218) labeled by 5-Iodoacetamidofluorescein via Cys194 (domain or fragment, UniProt P56524 155-218, looked up)
chain: LKNKEKGKESAVASTEVKMKLQEFVLNKKKALAHRNLNHC(5‑acetamidofluorescein)ISSDPRYWYGKTQHSSLDQSSPPQ
Take B3: the binding result in series [3] was “binds”.

The record behind these values is article PMC3384312 (Nucleic Acids Research, 2012).
